Experimental data taken from patent US20180128830A1, “DETECTION OF HUMAN CYTOMEGALOVIRUS IN BREAST CANCER” (priority 2015, published 2018).

Columns and labels:
Stat3 = test: Cell-based Stat3 ELISA; set-up: species or system human; settings: varying doses, 15 min
Experimental: For the Stat3 ELISA, cells were seeded into 96-well dishes at a density of 1×10^4 cell per well, treated with varying doses of cmvIL-10 in triplicate for 15 min, and then lysed in the plate and assayed for total or pStat3 using the Cell-based Stat3 ELISA kit according to manufacturer's instructions (R&D Systems). The detection of hIL-10 in supernatants from MDA-MB-231 cell cultures was performed using the IL-10 ELISA DuoSet kit as directed (R&D Systems).

Stat1 = test: Western blot for Stat1 phosphorylation in MDA-MB-231 cells; assay type: cell-based, human; settings: 100 ng/ml, 15 min
Experimental: For western blotting, cells were treated with 100 ng/ml cmvIL-10, hIL-10, IFNγ or PBS for 15 min, then harvested into cell lysis buffer (150 mM NaCl, 20 mM HEPES, 0.5% Triton-X-100, 1 mM NaOV4, 1 mM EDTA, 0.1% NaN3). Lysates were clarified, proteins were separated via SDS-PAGE, and then transferred to a nitrocellulose membrane. Then membrane was incubated in blocking solution (5% milk+1×TBS-T) for 1 hr, then probed with primary antibody at a 1:1000 dilution (total Stat3 or pStat3, total Stat1 or pStat1) in blocking solution overnight at 4° C. After washing, the membranes were incubated with a 1:2000 dilution of appropriate AP-conjugated secondary antibody and bands were detected using Western Blue stabilized AP substrate (Promega, Madison, Wis.). For analysis of secreted proteins, supernatants were collected at various time points, analyzed by SDS-PAGE and then immunoblotted as above for cmvIL-10, hIL-10, or serpin E1/PAI.

MMP-3 = MMP-3 ELISA on cell lysates; assay type: cell-based, human; settings: 10 ng/ml, 48 hours
Experimental: DuoSet ELISA kits (R&D Systems) were used to quantify uPAR, PAI-1, and MMP-3. For uPAR and PAI-1 measurement, MDA cells were seeded in triplicate in 96-well plate at 5.0×10^4 cell/mL density with complete L-15 media and treated with 10 ng/mL of either cmvIL-10 or hIL-10 for the indicated times and supernatants were collected daily. The ELISA was carried out on supernatants according to manufacturer's instructions using and following the addition of substrate and stop solution, absorbance of the plate was measured at 450 nm using a Dynex Opsys MR microplate reader. Sample concentrations were interpolated from a standard curve using linear regression analysis. For cell-associated MMP-3, MDA cells were seeded in 96-well plates and treated with cmvIL-10 as above. Cells were treated with cell lysis buffer (150 mM NaCl, 20 mM HEPES, 0.5% Triton-X-100, 1.0 mM NaOV4, 1.0 mM EDTA, 0.1% NaN3) supplemented with 1× protease inhibitors (Calbiochem, EMD Chemicals, San Diego Calif.) and were collected daily for the indicated time points. The lysates were evaluated for MMP-3 according to the manufacturer's instructions (R&D Systems).

CXCR4 = molecular target: T1, CXCR4 (Homo sapiens, UniProt P61073); test: Calcium flux assay in HEK293 cells; assay type: cell-based
T1 construct: HEK293 cells, which endogenously express both CXCR4 and IL-10R; endogenous in cells; host or cells: HEK293
Experimental: Calcium flux assays were performed as described (Arnolds K L, et al. Virology 439:122-131.). Briefly, cells were resuspended in 2 mls calcium assay buffer (RPMI with 25 mM of HEPES) at a density of 5×10^5 cells/ml per sample. Each sample was labeled with 2 μl of Fluo-4AM (Invitrogen, Grand Island, N.Y.), wrapped in foil, at 37° C. for 30 minutes with agitation at 10-minute intervals. Following incubation, each sample was pelleted, resuspended in calcium assay buffer, and transferred into an eppendorf tube for flow cytometry using the BD C6 Accuri. Fluorescence intensity of each sample was measured for 20 seconds to establish baseline, then stimulus (CXCL12, in the presence or absence of cmvIL-10, as indicated) was added via micropipetting directly into the sample while fluorescence intensity was measured. Kinetic fluorescence intensity analysis was performed with FlowJo software v9.4.9 (FlowJo, Ashland, Oreg.). Purified recombinant cmvIL-10 was purchased from R&D Systems (Minneapolis, Minn.) and purified recombinant CXCL12 was purchased from Peprotech (Rocky Hill, N.J.). For each calcium flux assay, ionomycin (Sigma) was a positive control for Fluo-4AM loading and PBS served as a negative control for the addition of stimulus.

MDA-MB-231 cells = test: Cell viability under etoposide, Cell Titer Glo; assay type: cell-based, human
Experimental: Cells were seeded into 96-well dishes at a density of 1×10^4 cell per well in complete medium with varying doses of cmvIL-10, and then cell viability measured at the indicated time points using the Cell Titer Glo Assay kit according to manufacturer's instructions (Promega). DNA synthesis was measured in cells prepared in the same way using the BrdU Cell Proliferation ELISA Kit (Roche, Basel, Switzerland). For experiments using inhibitors, cells were cultivated in 96-well dishes as above with a final concentration of 10 μM inhibitor and BrdU incorporation evaluated after 72 hrs. For cell counts, cells were seeded into 6-well plates at a density of 2×10^5 cells per well, harvested via trypsinization, and counted using a hemacytometer at the indicated time points. The TACS Annexin V-FITC Detection Kit (Trevigen, Gaithersburg, Md.) was used to stain cells harvested from 70% confluent T75 flasks that had been treated with 100 μM etoposide for 48 hrs in the presence or absence of 100 ng/ml cmvIL-10. Cells were then analyzed via flow cytometry to detect fluorescence. For viability assays, Cell Titer Glo reagent was utilized to quantify cells that had been seeded into 96-well dishes at a density of 1×10^4 cell per well in complete medium with varying doses of etoposide in the presence or absence of 100 ng/ml cmvIL-10 as indicated

T1 sequence (P61073 whole entry): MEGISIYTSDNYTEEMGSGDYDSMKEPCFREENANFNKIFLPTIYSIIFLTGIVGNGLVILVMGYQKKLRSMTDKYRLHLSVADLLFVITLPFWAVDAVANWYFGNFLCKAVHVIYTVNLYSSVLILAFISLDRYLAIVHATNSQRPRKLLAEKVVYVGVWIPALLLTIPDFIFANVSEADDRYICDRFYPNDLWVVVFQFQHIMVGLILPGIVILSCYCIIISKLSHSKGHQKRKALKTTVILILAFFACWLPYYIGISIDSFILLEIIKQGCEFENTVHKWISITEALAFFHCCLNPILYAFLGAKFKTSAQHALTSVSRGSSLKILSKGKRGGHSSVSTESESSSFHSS

B1: cmvIL-10 (protein)
chain: ATTTTIKNTKPQCRPEDYATRLQDLRVTFHRVKPTLQREDDYSVWLDGTVVKGCWGCSVMDWLLRRYLEIVFPAGDHVYPGLKTELHSMRSTLESIYKDMRQCPLLGCGDKSVISRLSQEAERKSDNGTRKGLSELDTLFSRLEEYLHSRK
Stat3
  amount of Stat3 phosphorylation (pStat3 to total Stat3): increased in a dose-dependent manner
Stat1
  Stat1 phosphorylation: did not globally activate other cellular effectors, such as Stat1
MMP-3
  cell-associated MMP-3 (cell lysates): increased significantly
CXCR4; CXCL12 0.1 μg/ml plus cmvIL-10 0.1 μg/ml
  peak fluorescence intensity of calcium mobilization: significantly higher
CXCR4; cmvIL-10 alone
  calcium mobilization: did not induce calcium mobilization
MDA-MB-231 cells; 10 μM etoposide, 100 ng/ml cmvIL-10
  cell viability over time: able to overcome etoposide-induced effects over time and proliferate robustly
MDA-MB-231 cells; varying doses of etoposide, 100 ng/ml cmvIL-10, 48 hours
  overall cell viability: increased overall cell viability
